Assay results from paper PMC7913777, “Allosteric effects of SSB C-terminal tail on assembly of E. coli RecOR proteins” (Nucleic Acids Research, 2021).
Values joined by “and” are separate entries in the source; they are usually repeats but may differ in a detail not shown here. Equal values may be shown once.

What was measured:
E. coli RecR tetramer [1] = molecular target: T1, E. coli RecR tetramer (E. coli, UniProt P0A7H6 1-201); test: AUC; sedimentation equilibrium, RecO 1.5 μM + RecR 1.5 μM monomer (1:1), no P15, buffer BTP (pH 8), 25°C, 18 000, 23 000, 28 000 rpm; two-species model, free RecO fixed
T1 construct: RecR, E. coli; tetramer 87.8 kDa; Same preparation as m2; the tetrameric state, which is the one found in complexes with RecO; also called RecR4; R4; source: E. coli BL21 Rosetta 2(DE3)pLysS, purified (Ni-NTA)
T1 sequence (looked up): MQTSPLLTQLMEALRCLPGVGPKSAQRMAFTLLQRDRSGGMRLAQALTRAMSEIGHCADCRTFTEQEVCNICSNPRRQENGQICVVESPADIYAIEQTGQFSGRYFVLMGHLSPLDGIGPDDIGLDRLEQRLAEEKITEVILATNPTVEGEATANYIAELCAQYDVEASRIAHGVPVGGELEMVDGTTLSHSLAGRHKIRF

E. coli RecR tetramer [2] = molecular target: T1, E. coli RecR tetramer; test: AUC; sedimentation velocity, RecO (1.5 μM) titrated with RecR (1.5-9 μM monomer; 1:1 to 1:6), no P15, buffer BTP (pH 8.0), 25°C; K3 and K4 from SedAnal simulations (Scheme 1) that best describe the c(s) profiles
E. coli RecR tetramer [3] = molecular target: T1, E. coli RecR tetramer; test: AUC; sedimentation equilibrium, RecO 1.5 μM + RecR 6 μM monomer (1:4), no P15, buffer BTP (pH 8), 25°C, 18 000, 23 000, 28 000 rpm; two-species model, free RecR dimer fixed
[4] = molecular target: Escherichia coli RecR protein (E. coli) (UniProt P0A7H6); test: AUC; sedimentation equilibrium of RecR alone, buffer BTP, 37°C; dimers to tetramer
[5] = molecular target: Escherichia coli RecR protein (E. coli) (UniProt P0A7H6); test: AUC; sedimentation equilibrium of RecR alone, 4, 8 and 12 μM (monomer), buffer BTP pH 7.0, 50 mM NaCl, 25°C; dimers to tetramer, Lobs = [R4]/[R2]^2
[6] = molecular target: Escherichia coli RecR protein (E. coli) (UniProt P0A7H6); test: AUC; sedimentation equilibrium of RecR alone, 4, 8 and 12 μM (monomer), buffer BTP pH 7.5, 50 mM NaCl, 25°C; dimers to tetramer, Lobs = [R4]/[R2]^2
[7] = molecular target: Escherichia coli RecR protein (E. coli) (UniProt P0A7H6); test: AUC; sedimentation equilibrium of RecR alone, 4, 8 and 12 μM (monomer), buffer BTP pH 6.4, 50 mM NaCl, 25°C; dimers to tetramer, Lobs = [R4]/[R2]^2
[8] = molecular target: Escherichia coli RecR protein (E. coli) (UniProt P0A7H6); test: AUC; sedimentation equilibrium of RecR alone, 4, 8 and 12 μM (monomer), buffer BTP pH 9.0, 50 mM NaCl, 25°C; dimers to tetramer, Lobs = [R4]/[R2]^2
[9] = molecular target: Escherichia coli RecR protein (E. coli) (UniProt P0A7H6); test: AUC; sedimentation velocity of RecR alone, eight concentrations 2-20 μM (monomer), buffer BTP (pH 8.0), 25°C, 233 nm
[10] = molecular target: Escherichia coli RecR protein (E. coli) (UniProt P0A7H6); test: AUC; sedimentation equilibrium of RecR alone, buffer BTP pH 8.0 with 200 mM NaCl, 25°C; dimers to tetramer
[11] = molecular target: Escherichia coli RecR protein (E. coli) (UniProt P0A7H6); test: AUC; sedimentation equilibrium of RecR alone, 4, 8 and 12 μM (monomer), buffer BTP pH 8.0, 50 mM NaCl, 25°C; dimers to tetramer, Lobs = [R4]/[R2]^2; at 8 μM also a two-species model with the second mass floated
[12] = molecular target: Escherichia coli RecR protein (E. coli) (UniProt P0A7H6); test: AUC; sedimentation equilibrium of RecR alone, buffer BTP pH 8.0, 50 mM NaCl + 10 mM MgCl2, 25°C; dimers to tetramer
[13] = molecular target: Escherichia coli RecR protein (E. coli) (UniProt P0A7H6); test: AUC; sedimentation equilibrium of RecR alone, 4, 8 and 12 μM (monomer), buffer BTP pH 8.5, 50 mM NaCl, 25°C; dimers to tetramer, Lobs = [R4]/[R2]^2
[14] = molecular target: T2, Escherichia coli RecO protein (E. coli, UniProt P0A7H3 1-242); test: ITC; pH 8, 25°C
T2 chain: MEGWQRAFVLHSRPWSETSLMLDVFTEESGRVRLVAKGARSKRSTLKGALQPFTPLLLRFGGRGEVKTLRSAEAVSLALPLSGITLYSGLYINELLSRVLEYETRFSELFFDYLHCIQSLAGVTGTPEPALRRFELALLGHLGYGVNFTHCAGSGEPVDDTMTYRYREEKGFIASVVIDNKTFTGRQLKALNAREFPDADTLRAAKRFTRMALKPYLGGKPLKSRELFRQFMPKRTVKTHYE

[15] = molecular target: T3, RecOR complex (pre-mixed RecO and RecR, 1:4 molar ratio) (E. coli, UniProt P0A7H3 1-242; P0A7H6 1-201); test: ITC; P15 (50 μM) titrated into a pre-mixed solution of RecO (2 μM) and RecR (8 μM monomer), buffer BTP, pH 8.0, 25°C; settings: both partners purified
T3 construct: RecO, E. coli; as m1; RecR, E. coli; as m2; also called pre-mixed solution of RecO (2 μM) and RecR (8 μM monomer); source: purified RecO and purified RecR (both from E. coli), pre-mixed; copies: + 4
T3 sequence (looked up) 1: T2 chain
T3 sequence (looked up) 2: T1 sequence (looked up)

E. coli RecR tetramer [16] = molecular target: T1, E. coli RecR tetramer; test: AUC; sedimentation equilibrium, RecO 1.5 μM + RecR 6 μM (1:4) with P15 (9 μM), buffer BTP (pH 8), 25°C, 19 000, 24 000, 29 000 rpm; one-species model; settings: both partners purified
E. coli RecR tetramer [17] = molecular target: T1, E. coli RecR tetramer; test: AUC; sedimentation equilibrium, RecR 2 μM monomer, RecO 6 μM (3:1), P15 36 μM, buffer BTP (pH 8.0), 25°C, 19 000, 24 000, 29 000 rpm; two-species model, RecO-P15 fixed at 29.1 kDa; settings: both partners purified
E. coli RecR tetramer [18] = molecular target: T1, E. coli RecR tetramer; test: AUC; sedimentation equilibrium, RecO 1.5 μM + RecR 1.5 μM (1:1) with P15 (9 μM), buffer BTP (pH 8), 25°C, 19 000, 24 000, 29 000 rpm; two-species model; settings: both partners purified

Q: “Escherichia coli RecO protein (from UniProt P0A7H3 1-242) (natural protein)” was tested. Which stoichiometry N (RecO per RecR tetramer) (E. coli RecR tetramer [1]) did it give?
A: 2

Q: What about the K3 (association constant, first RecO to RecR4) (E. coli RecR tetramer [2]) of the same molecule?
A: 500000 M⁻¹

Q: What about the K4 (association constant, second RecO to RecR4O) (E. coli RecR tetramer [2]) of the same molecule?
A: 4e+08 M⁻¹

Q: And the stoichiometry N (RecO per RecR tetramer) (E. coli RecR tetramer [3])?
A: 2

Q: Which results are given for “Escherichia coli RecR protein (from UniProt P0A7H6 1-201) (natural protein)”?
A: Ka [4]: 149000 M⁻¹; Ka [5]: 1.65e+06 M⁻¹; Ka [6]: 568000 M⁻¹; Ka [7]: 267000 M⁻¹; Ka [8]: < 500 M⁻¹; stoichiometry N [9]: 2 and 4; Ka [10]: 34900 M⁻¹; Ka [11]: 216000 M⁻¹; stoichiometry N [11]: 4; Ka [12]: 72000 M⁻¹; Ka [13]: 4320 M⁻¹

B1: P15 peptide (the 15 C-terminal amino acids of E. coli SSB) (peptide)
peptide: PSNEPPMDFDDDIPF
notes: the 15 C-terminal amino acids of E. coli SSB; also called SSB-Ct peptide; SSB C-terminal acidic tip peptide; source: bought: WatsonBio
Q: With B1 as the molecule, how does the Ka [14] read?
A: 1.2e+07 M⁻¹

Q: And the dH [15]?
A: < 1 kcal/mol

B2: RecO–P15 complex (complex, E. coli)
chain: T2 chain
peptide: PSNEPPMDFDDDIPF
notes: RecO, E. coli; as m1; the 15 C-terminal amino acids of E. coli SSB; as m3; 29.1 kDa; also called RecO in the presence of a 6-fold molar excess of P15; source: RecO from E. coli BL21(DE3)pLysS, purified; P15 bought: WatsonBio; mixed with a six-fold molar excess of P15 over RecO; copies: 1 + 1
Q: B2 was tested. Which “stoichiometry N” value (E. coli RecR tetramer [16]) did it give?
A: 1 RecO per RecR tetramer

Q: And the “stoichiometry N” value (E. coli RecR tetramer [17])?
A: 2 RecO-P15 per RecR tetramer

Q: What about the “stoichiometry N” value (E. coli RecR tetramer [18]) of the same molecule?
A: 2 RecO per RecR tetramer
